Experimental data taken from the supplement of paper PMC10567573.

B1: PHTF1 (parent)
chain: RVKLISNKGTETDNDPSCVHPIIK
B2: CHCHD6 (parent)
chain: MYKLSSEQFHEAASKMESTIKPRR

Variants of: B1
Assay: protein stability index of a GFP-peptide fusion (GPS, HEK-293T) (PSI 1-6); higher = more stable
Conditions: c terminus: a fixed tail appended
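Also: lentivirally expressed fusions sorted by FACS into six bins by GFP to DsRed ratio, PSI derived from sequencing read proportions per bin multiplied by bin number.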

Protein stability index: each site, then its substitutions
H20: N 4.15 | K 4.38 | C 3.94 | M 4.22 | Y 3.91 | R 4.26 | G 4.43 | S 4.11 | T 4.49 | Q 4.61 | E 4.76 | F 3.42 | W 3.32 | A 4.3 | D 4.46 | P 4.02 | L 3.95 | V 3.86 | I 3.6
C18: A 4.01 | W 2.77 | I 4.23 | H 4.49 | F 3.79 | P 4.03 | R 4.08 | V 4.58 | G 4.3 | D 4.46 | S 4.42 | K 4.32 | E 4.85 | N 4.5 | Q 4.28 | L 4.09 | Y 3.77 | M 4.19 | T 4.42
I22: Q 4.22 | L 4.22 | R 4.53 | D 4.63 | A 4.42 | Y 4.23 | P 4.67 | F 3.88 | H 4.78 | M 3.51 | S 4.6 | V 4.4 | C 3.84 | N 4.5 | K 4.32 | W 3.68 | G 4.48 | T 4.51 | E 4.38
T12: A 4.11 | M 3.44 | E 4.53 | P 4.29 | W 3.11 | Q 4.18 | N 4.26 | H 4.24 | C 3.87 | D 4.31 | R 3.95 | K 4.49 | L 3.61 | V 4.01 | G 4.14 | F 3.67 | Y 3.25 | S 4.09 | I 3.86
I23: Q 4.64 | M 4.19 | P 4.69 | F 4.02 | K 4.74 | W 3.52 | D 4.82 | A 4.59 | G 4.49 | R 4.6 | E 4.82 | N 4.59 | L 4.47 | T 4.57 | H 4.74 | S 4.37 | V 3.85 | Y 4.16 | C 4.67
P21: W 3.13 | H 4.03 | N 3.61 | G 4.08 | M 3.06 | I 2.1 | A 3.72 | D 3.95 | C 2.75 | Y 3.4 | L 2.3 | F 2.73 | T 3.87 | V 3.46 | Q 3.82 | R 4 | S 3.89 | E 4.03 | K 3.84
D13: I 3.24 | P 3.26 | T 3.76 | N 3.68 | L 3.4 | F 2.96 | H 3.51 | Y 2.74 | Q 3.9 | A 3.72 | K 3.74 | E 4.21 | G 3.89 | W 2.48 | V 3.5 | C 3.21 | R 3.76 | M 3.48 | S 3.85
N14: M 3.6 | L 3.48 | T 4.16 | S 4.56 | F 3.06 | W 2.65 | R 3.71 | C 3.72 | H 3.82 | V 4.26 | I 3.06 | Y 3.73 | A 4.25 | K 3.65 | Q 4.29 | P 4.3 | G 3.83 | E 4.53 | D 4.04
E11: N 4.04 | W 2.43 | T 3.82 | P 3.95 | Y 3 | V 3.16 | Q 3.57 | R 3.45 | S 3.55
K24: G 3.76 | M 3 | R 4.09 | Q 3.74 | H 4.11 | V 3.17 | F 2.33 | T 3.68 | P 4.27 | E 4.13 | N 4.26 | L 2.67 | D 4.22 | W 2.73 | Y 2.79 | I 2.49 | C 3.36 | A 3.54 | S 3.82
V19: R 4.21 | W 3.19 | Q 4.21 | T 4.36 | C 3.93 | E 4.32 | N 4.38 | M 3.88 | F 3.31 | G 3.89 | S 4.47 | D 4.74 | L 3.68 | Y 3.86 | H 3.87 | P 4.64 | I 3.84 | A 4.34 | K 4.28
P16: H 3.88 | Y 3.13 | M 3.96 | S 4.4 | R 3.96 | K 4.06 | C 3.82 | G 4.55 | F 3.48 | W 2.37 | E 4.18 | I 3.67 | V 3.97 | A 3.98 | D 4.13 | N 3.68 | L 3.38 | T 3.94 | Q 4.03
D15: R 3.45 | V 3.68 | K 3.79 | H 3.64 | I 3.29 | C 3.09 | T 3.56 | M 3.62 | S 3.9 | Q 3.82 | Y 3 | G 3.67 | F 2.87 | A 3.8 | W 2.04 | E 3.94 | N 4.06 | P 4.1 | L 3.27
S17: R 3.99 | T 4.27 | A 4.42 | M 3.59 | N 4.01 | E 4.71 | L 3.93 | C 3.53 | I 3.29 | D 4.08 | H 4.06 | P 4.41 | F 3.12 | Y 3.36 | K 4.22 | Q 4.18 | V 4.16 | W 2.96 | G 4.21

Variants of: B2
Assay: as above
Conditions: c terminus: a fixed tail appended

Protein stability index, by site and new letter:
S5: A 4.02 | D 4.06 | C 3.14
Y2: Q 4.25 | V 4.05 | M 4.45 | W 2.58 | I 3.98 | F 4.01 | L 4.34 | S 4.5 | A 4.55 | H 4.44 | K 4.7 | D 4.83 | R 4.7 | T 3.29 | P 4.77 | E 4.42 | N 4.51 | C 3.53 | G 4.48
L4: S 4.06 | R 4.24 | M 4.27 | K 4.49 | V 3.74 | I 3.18 | F 3.5 | P 4.61 | T 3.81 | D 4.53 | E 4.34 | A 4.69 | C 3.29 | Y 3.53 | Q 4.32 | N 4.23 | W 3.77 | H 3.58
M1: W 3.36 | Q 4.24 | F 3.7 | D 5.02 | N 4.37 | H 4.18 | C 3.59 | V 4.03 | P 4.36 | G 4.53 | L 3.06 | A 3.87 | T 4.12 | S 4 | K 4.13 | I 3.41 | Y 3.56 | R 4.33 | E 4.44
K3: S 2.47 | L 2.66 | N 3.68 | E 3.66 | M 3.7 | P 4.17 | Q 4.17 | C 3.63 | G 4.46 | I 2.59 | A 4.56 | Y 3.08 | F 2.55 | T 3.73 | D 3.84 | R 3.6 | H 3.98 | W 2.94 | V 2.7
